Results on one substance are retold here after article PMC2930196.

In this assay the target is Phospholipid transfer protein (PLTP) in human plasma (human (endogenous in plasma)) (UniProt P55058). In words: co-IP.
Chain of UniProt P55058 (P55058 18-493): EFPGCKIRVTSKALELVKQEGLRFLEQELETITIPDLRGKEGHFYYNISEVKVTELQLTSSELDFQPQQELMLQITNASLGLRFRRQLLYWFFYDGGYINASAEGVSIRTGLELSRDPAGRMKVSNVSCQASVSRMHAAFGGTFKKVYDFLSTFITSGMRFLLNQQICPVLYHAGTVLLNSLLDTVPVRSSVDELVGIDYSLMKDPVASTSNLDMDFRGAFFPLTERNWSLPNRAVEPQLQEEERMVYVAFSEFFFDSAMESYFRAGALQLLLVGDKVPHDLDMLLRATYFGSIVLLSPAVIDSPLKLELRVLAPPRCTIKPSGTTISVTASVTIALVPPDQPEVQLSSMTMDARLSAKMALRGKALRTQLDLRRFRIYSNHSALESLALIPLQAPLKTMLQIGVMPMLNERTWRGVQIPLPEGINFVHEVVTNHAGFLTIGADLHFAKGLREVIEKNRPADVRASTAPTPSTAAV

Consider “Clusterin (apoJ) in human plasma (natural protein)”, for which the molar ratio of clusterin, PLTP and apoA-I in the isolated PLTP complexes (ELISA) amounted to 5.
